These results are taken from US20250163130A1, “LIGAND GATED ION CHANNELS AND METHODS OF USE” (Trames Bio, Inc., priority 2022, published 2025).

One assay deals with T1, CODA1237 (Homo sapiens, UniProt P36544, F159M/H163T/I152M/R155K/V154L/W156N/Y151P).
T1 construct: expressed in transfected cells; host or cells: Lenti-X 293T (LX293T, Clontech) stably expressing mutant YFP (H148Q/I152L) reporter
Nature of the assay: Anion reporter (YFP quench) plate assay, ligand response of cells expressing CODA1237 compared with CODA71. It counts as cell-based. The note with it: FIG. 1, various ligand doses.

The test system of assay [1] is rat model of neuropathic pain. Nature of the assay: Spared nerve injury (SNI) rat model of neuropathic pain, mechanical withdrawal threshold. Type of assay: in vivo. The note with it: SNI rats injected with AAV.hSYN encoding engineered receptor; repeat IP injection on the third day. How it is done: The engineered receptors disclosed herein are assessed for their ability to provide analgesia in a rat model of neuropathic pain following administration of a small molecule ligand. AAV expression cassettes containing a human synapsin-1 (hSYN) promoter linked to polynucleotides encoding either a wild type α7-nAChR, or any one of the engineered chimeric receptors disclosed herein are constructed using standard molecular biology techniques.
Behavioral experiments and pain models: To produce mechanical hypersensitivity in a model that mimics a neuropathic pain condition, the spared nerve injury (SNI) model (a validated model of mechanical allodynia) is used (Shields et al., 2003, The Journal of Pain, 4, 465-470). This model is produced by the sectioning of the common peroneal and the sural nerves and isolating the tibial branch. Mechanical withdrawal threshold is assessed by placing rats on an elevated wire-mesh grid and stimulating the plantar surface of the hind paw with von Frey filaments.
Effects of administration: This SNI model is produced by the sectioning of the common peroneal and the sural nerves and isolating the tibial branch of the rat. […] The duration that the rat spends on the rotarod is recorded, with a cut-off at 300 sec. […]

The subject of assay [2] is HEK cells. Nature of the assay: Peak current measurement on IonFlux in HEK cells. It counts as cell-based. Particulars: held at −60 mV. How it is done: HEK 293 cells were routinely subcultured in DMEM with 10% fetal bovine serum (ThermoFisher Scientific). Cells were plated in 15 cm dishes 24 hours prior to transfection with Fugene 6 (Promega, E2691) and plasmid DNA (total of 20 μg DNA). 24 hours post transfection, cells were lifted with Accutase (Sigma, A6964) then resuspended in serum free media (CHO—S-SFM II, ThermoFisher Scientific 12052 with 25 mM HEPES, ThermoFisher Scientific, 15630080) to rest for 30-90 min before being loaded onto IonFlux (Fluxion Biosciences) for experiments. Recordings were made in extracellular solution (ECS) containing (in mM): 140 sodium chloride (S7653), 4 potassium chloride (P9333), 1 magnesium chloride (M2670), 2 calcium chloride (C3881), 10 HEPES (54457), and 10 D-(+)-glucose (G7528) (pH=7.3 with sodium hydroxide, osmolarity=305-315 mOsm). Intracellular solution (ICS) contains (in mM): 140 cesium chloride (289329), 5 potassium fluoride (60238), 2 Calcium chloride (P9333), 2 magnesium chloride (M2670), 10 HEPES (54457), and 10 EGTA (3777) (pH=7.2 with cesium hydroxide, osmolarity=290-295 mOsm).
Drug-induced currents were recorded in ensemble mode (20 cells are patched per recording channel). Cells were held at −60 mV and current across the membrane was recorded at 1 kHz sampling rate. Drugs tested include acetycholine chloride (A6625) and other synthetic compounds. […]

Assay [3] concerns HEK cells. Nature of the assay: Peak current measurement by manual patch clamp in HEK cells. Type of assay: cell-based. Particulars: held at −60 mV. The procedure: Cell culture: HEK 293 cells were routinely subcultured in DMEM with 10% fetal bovine serum (ThermoFisher Scientific). Cells were plated in six-well dishes 24 hours prior to transfection with Fugene 6 (Promega, E2691) and plasmid DNA (total of 1 μg DNA). 24 hours post transfection, cells were replated onto 10 mm PDL and collagen coated coverslips, before being used for patch clamp experiments 24-48 hours later. For dorsal root ganglion neuron experiments, adult rat lumbar ganglia were harvested and dissociated according to standard protocols, cultured on glass coverslips coated with poly-L-lysine and mouse laminin, transduced on DIV1 with ires-GFP-containing lentiviral or AAV6 vectors, and processed for immunocytochemistry on DIV7. For hippocampal neuron experiments, hippocampi were harvested from embryonic day 18 rat pups or postnatal day 0 mouse pups and dissociated according to standard protocols. […]
Whole-cell patch clamp recording protocol: Cells plated on coverslips were visualized at 10× and 40× on an inverted fluorescence microscope (Olympus). […] Traces were either analyzed in Clampfit (Molecular Devices) or using custom Python code. […]
Dose-response experiments: Drug-induced currents were recorded in voltage clamp mode. […]
(In general: In patch-clamp work, channel activity is measured electrically.)

Assay [4] deals with HEK cells. Description: TC-5619 / acetylcholine dose response and peak current of engineered receptors in HEK cells (FIGS. 5C-5F). Particulars: for Response to TC-5619 (dose response), compared with CODA71: FIGS. 5C-5E. It counts as cell-based.

T1 sequence (P36544 with tags, fused parts or gaps Y151P/I152M/V154L/R155K/W156N/F159M/H163T): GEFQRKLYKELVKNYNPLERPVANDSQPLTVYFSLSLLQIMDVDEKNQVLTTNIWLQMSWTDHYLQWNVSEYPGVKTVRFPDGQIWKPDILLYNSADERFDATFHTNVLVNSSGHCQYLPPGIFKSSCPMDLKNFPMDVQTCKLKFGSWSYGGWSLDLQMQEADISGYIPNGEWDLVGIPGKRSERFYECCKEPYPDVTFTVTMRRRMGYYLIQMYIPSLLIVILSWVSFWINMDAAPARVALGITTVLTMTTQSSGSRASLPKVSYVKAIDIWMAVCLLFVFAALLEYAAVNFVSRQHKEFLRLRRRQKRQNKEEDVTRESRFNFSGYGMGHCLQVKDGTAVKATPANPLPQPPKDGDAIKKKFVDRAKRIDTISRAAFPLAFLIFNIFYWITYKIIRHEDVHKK

`c1cnc2c(c1)C[C@@]1(CN3CCC1CC3)O2` [AZD-0328]: on CODA1237, the “Responsiveness (percent quench of YFP fluorescence) of cells expressing CODA1237 compared with cells expressing CODA71” value is “more responsive”. Further, the “Mechanical withdrawal thresholds (up-down method) after IP injection of ligand” value in assay [1] was “recovery to non-injury baseline thresholds”.

B1: CODA1055: α7-nAChR(Gly-cys) LBD: GlyRα1 IPD, SEQ ID NO: 33 comprising R101W, Y115E, Y210W mutations (protein)
chain: MRCSPGGVWLALAASLLHVSLQGEFQRKLYKELVKNYNPLERPVANDSQPLTVYFSLSLLQIMDVDEKNQVLTTNIWLQMSWTDHYLQWNVSEYPGVKTVWFPDGQIWKPDILLENSADERFDATFHTNVLVNSSGHCQYLPPGIFKSSCPMDLKNFPMDVQTCKLKFGSWSYGGWSLDLQMQEADISGYIPNGEWDLVGIPGKRSERFWECCKEPYPDVTFTVTMRRRMGYYLIQMYIPSLLIVILSWISFWINMDAAPARVGLGITTVLTMTTQSSGSRASLPKVSYVKAIDIWMAVCLLFVFSALLEYAAVNFVSRQHKELLRFRRKRRHHKSPMLNLFQEDEAGEGRFNFSAYGMGPACLQAKDGISVKGANNSNTTNPPPAPSKSPEEMRKLFIQRAKKIDKISRIGFPMAFLIFNMFYWIIYKIVRREDVHNQ
modifications: synthetic sequence of chimeric LGIC
For the molecule B1, in the assay with HEK cells [2], the “Peak Current on IonFlux in HEK Cells” value was −5074.3 picoamps (pA). In the assay on HEK cells [3], the “Peak Current on Manual Patch Clamp in HEK cells” value is reported as −2176.6 picoamps (pA). Further, the “Response to acetylcholine (dose response), compared with CODA71” value with HEK cells [4] (FIGS. 5C-5D) was “reduced response”. Also, the “Response to TC-5619 (dose response), compared with CODA71” value in the assay with HEK cells [4] was “increased response”.

B2: CODA1316: α7-nAChR(Gly-cys) LBD: GlyRα2 IPD, SEQ ID NO: 65 comprising R101W, Y115E, Y210W, T225I mutations (protein)
chain: MRCSPGGVWLALAASLLHVSLQGEFQRKLYKELVKNYNPLERPVANDSQPLTVYFSLSLLQIMDVDEKNQVLTTNIWLQMSWTDHYLQWNVSEYPGVKTVWFPDGQIWKPDILLENSADERFDATFHTNVLVNSSGHCQYLPPGIFKSSCPMDLKNFPMDVQTCKLKFGSWSYGGWSLDLQMQEADISGYIPNGEWDLVGIPGKRSERFWECCKEPYPDVTFTVIMRRRMGYYLIQMYIPSLLIVILSWVSFWINMDAAPARVALGITTVLTMTTQSSGSRASLPKVSYVKAIDIWMAVCLLFVFAALLEYAAVNFVSRQHKEFLRLRRRQKRQNKEEDVTRESRFNFSGYGMGHCLQVKDGTAVKATPANPLPQPPKDGDAIKKKFVDRAKRIDTISRAAFPLAFLIFNIFYWITYKIIRHEDVHKK
modifications: CHRNA7 (Cys-loop)/GLRA2
Regarding B2, the “Peak Current on IonFlux in HEK Cells” value in the assay on HEK cells [2] is listed as −5520.5 picoamps (pA). Also, the “Peak Current on Manual Patch Clamp in HEK cells” value in the assay on HEK cells [3] is −2779 picoamps (pA). The “Peak current when activated by TC-5619, compared with CODA1055” value with HEK cells [4] (FIG. 5F) was “increased peak current”. For the same molecule, the “Response to TC-5619 (dose response), compared with CODA71” value in the assay with HEK cells [4] is given as “increased response”.
